This experiment deals with Factor Xa. As to the kind of experiment: SPR; FXa immobilised by amine coupling on a CM5 chip (1455.7 RU); Lofaxin as analyte at 1.95-31.25 nM; Biacore T100, 25°C, HBS-P buffer (10 mM HEPES, 150 mM NaCl, 0.005% P20, pH 7.4); global fit to the 1:1 Langmuir model. A general note: Surface plasmon resonance follows binding to a sensor surface in real time, without labels.

By Kd is commonly meant the concentration at which binding is half-saturated. The substance “recombinant Lofaxin (Lufaxin-like salivary protein of Bichromomyia olmeca) (natural protein)” displayed a Kd of 1.83 nM.

For the origin of these results see PMC4943706.
